Values of other authors in US20090023631A1, “Composition and Method of Use for Soft Tissue Augmentation/Drug Delivery” (priority 2007, published 2009).

Test system: stage III and IV ulcers
Conditions: multiple studies

B1: recombinant human PDGF-BB: platelet-derived growth factor, commercial product available as recombinant human PDGF-BB (protein, UniProt P01127 82-190, looked up)
Platelet-derived growth …: SLGSLTIAEPAMIAECKTRTEVFEISRRLIDRTNANFLVWPPCVEVQRCSGCCNNRNVQCRPTQVQLRPVQVRKIEIVRKKPIFKKATVTLEDHLACKCETVAAARPVT
modifications: BB homodimer
- healing time: reduce healing time
- incidence of complete wound healing: improve the incidence of complete wound healing
